Results: publication PMC13132546 (2026)

Experiments:
[1] = target: T1, DYRK1A (recombinant, N-terminally biotinylated) (UniProt Q13627 1-763, biotin on the N-terminus (sortase labelling with a synthetic biotin-LPETGG peptide onto the N-terminal glycine left after TEV cleavage)); test: BLI; steady-state response analysis
[2] = target: T1, DYRK1A (recombinant, N-terminally …); test: BLI

B1: FAM53C (recombinant) (natural protein)
chain: MITLITEQLQKQTLDELKCTRFSISLPLPDHADISNCGNSFQLVSEGASWRGLPHCSCAEFQDSLNFSYHPSGLSLHLRPPSRGNSPKEQPFSQVLRPEPPDPEKLPVPPAPPSKRHCRSLSVPVDLSRWQPVWRPAPSKLWTPIKHRGSGGGGGPQVPHQSPPKRVSSLRFLQAPSASSQCAPAHRPYSPPFFSLALAQDSSRPCAASPQSGSWESDAESLSPCPPQRRFSLSPSLGPQASRFLPSARSSPASSPELPWRPRGLRNLPRSRSQPCDLDARKTGVKRRHEEDPRRLRPSLDFDKMNQKPYSGGLCLQETAREGSSISPPWFMACSPPPLSASCSPTGGSSQVLSESEEEEEGAVRWGRQALSKRTLCQRDFGDLDLNLIEEN
- Kd [1]: 3.3 µM
- koff [2]: 0.04 s⁻¹
